Series [1] concerns Sleeping Beauty transposase SB100X (hyperactive) (synthetic construct (reconstructed Tc1-like fish transposon)). The series is described as follows: cell_activity. The note with it: day 14, CD8+ T cells, n=7.
Another series deals with CD19 (UniProt P15391). Nature of the series: cell-based or functional assay.
UniProt P15391, sequence (P15391 20-556 limits assumed): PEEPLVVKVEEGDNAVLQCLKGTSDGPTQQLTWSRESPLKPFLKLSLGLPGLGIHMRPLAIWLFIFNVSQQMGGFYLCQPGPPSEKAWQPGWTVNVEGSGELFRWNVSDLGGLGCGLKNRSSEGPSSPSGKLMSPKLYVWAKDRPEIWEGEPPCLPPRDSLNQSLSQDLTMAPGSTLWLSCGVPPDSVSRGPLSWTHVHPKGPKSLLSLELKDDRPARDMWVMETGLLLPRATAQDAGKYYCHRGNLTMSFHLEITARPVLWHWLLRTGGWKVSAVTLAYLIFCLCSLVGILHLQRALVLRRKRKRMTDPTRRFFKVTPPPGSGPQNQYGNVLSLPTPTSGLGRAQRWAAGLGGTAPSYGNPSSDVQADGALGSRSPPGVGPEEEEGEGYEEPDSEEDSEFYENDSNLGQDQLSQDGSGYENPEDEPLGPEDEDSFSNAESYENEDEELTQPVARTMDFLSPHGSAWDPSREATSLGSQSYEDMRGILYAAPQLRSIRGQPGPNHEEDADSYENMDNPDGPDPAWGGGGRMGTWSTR

“CD19-CAR_EGFRt transposon in pT2/HB plasmid” yielded an activity (% EGFRt+ cells) in series [1] (SB100X from plasmid) of 12.8.

In series [1] (SB100X from minicircle), “CD19-CAR_EGFRt transposon in pT2/HB minicircle” came in with an activity (% EGFRt+ cells) of 49.8.

On to “CD19-CAR (FMC63 targeting domain, IgG4-Fc Hinge spacer, CD3zeta and 4-1BB costimulation) (from UniProt P01861 99-110; Q07011 214-255; P20963 52-163)”, for which the proliferation by CFSE dilution (cell divisions in 72 hours) with CD19 was greater than 3.

Source of the values: patent US20190169637A1.
